Patent US20090118127A1

Molecular target: extra-cellular domain of recombinantly expressed RSV F protein (human Respiratory Syncytial Virus)
Assay: Biacore (SPR)

Chain of extra-cellular domain of recombinantly expressed RSV F protein (human Respiratory Syncytial Virus) (P03420 26-524): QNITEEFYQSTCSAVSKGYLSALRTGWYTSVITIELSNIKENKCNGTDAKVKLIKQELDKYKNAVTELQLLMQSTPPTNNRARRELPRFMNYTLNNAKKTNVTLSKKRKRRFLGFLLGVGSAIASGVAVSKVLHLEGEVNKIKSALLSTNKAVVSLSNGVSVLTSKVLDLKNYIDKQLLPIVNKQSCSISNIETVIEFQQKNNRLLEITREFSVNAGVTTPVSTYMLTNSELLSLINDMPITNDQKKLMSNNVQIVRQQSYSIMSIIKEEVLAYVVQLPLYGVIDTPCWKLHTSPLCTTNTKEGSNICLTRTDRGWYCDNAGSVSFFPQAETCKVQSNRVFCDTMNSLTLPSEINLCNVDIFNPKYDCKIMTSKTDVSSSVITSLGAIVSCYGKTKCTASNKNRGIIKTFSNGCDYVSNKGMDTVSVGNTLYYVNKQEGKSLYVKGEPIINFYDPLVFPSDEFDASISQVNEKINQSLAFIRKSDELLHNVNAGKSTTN

Substance	Kd [nM]
Numax™ (antibody)	0.24
SYNAGIS® brand of pavilizumab (antibody)	0.4
